The test system of data set [1] is ribitol dehydrogenase. The format is biochemical, Zymomonas mobilis.
In data set [2] the target is T1, Zymomonas mobilis ribitol dehydrogenase, wild-type, SEQ ID NO: 4 (Zymomonas mobilis, UniProt Q5NQS1).
T1 sequence (Q5NQS1 74-338): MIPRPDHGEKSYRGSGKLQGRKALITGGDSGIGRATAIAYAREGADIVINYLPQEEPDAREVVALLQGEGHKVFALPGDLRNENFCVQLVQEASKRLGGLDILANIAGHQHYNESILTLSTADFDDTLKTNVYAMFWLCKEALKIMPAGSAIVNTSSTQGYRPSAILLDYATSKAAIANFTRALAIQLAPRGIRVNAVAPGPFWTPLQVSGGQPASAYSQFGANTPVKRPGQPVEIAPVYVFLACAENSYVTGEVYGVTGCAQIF
The data set is described as follows: Dynamical (kinetic) parameters of ribitol dehydrogenase to coenzyme NAD(H)/NADP(H), wild-type. It counts as biochemical. The conditions noted are these: NADP 0.01 to 3 mM.

Substrate in data set [3]: NC(=O)c1ccc[n+]([C@@H]2O[C@H](COP(=O)(O)OP(=O)(O)OC[C@H]3O[C@@H](n4cnc5c(N)ncnc54)[C@H](OP(=O)(O)O)[C@@H]3O)[C@@H](O)[C@H]2O)c1
The experiment in a line: Dynamical parameters to coenzyme, variant S156C. It counts as biochemical, Zymomonas mobilis. The conditions noted are these: other: NADP 0.01 to 3 mM, ribitol, pH 9.0. The text has this:
(§1) There were no differences between the expression amount of various amino acid variants of Ser 156 and the expression amount of wide-type. The dynamical parameter of each of variants was confirmed using the above variants.

Substrate in data set [4]: NC(=O)c1ccc[n+]([C@@H]2O[C@H](COP(=O)(O)OP(=O)(O)OC[C@H]3O[C@@H](n4cnc5c(N)ncnc54)[C@H](OP(=O)(O)O)[C@@H]3O)[C@@H](O)[C@H]2O)c1
The experiment in a line: Dynamical parameters to coenzyme, variant S156A. The settings on record: other: NADP 0.01 to 3 mM, ribitol, pH 9.0. It counts as biochemical, Zymomonas mobilis.
Excerpt: as §1

Substrate in data set [5]: NC(=O)c1ccc[n+]([C@@H]2O[C@H](COP(=O)(O)OP(=O)(O)OC[C@H]3O[C@@H](n4cnc5c(N)ncnc54)[C@H](OP(=O)(O)O)[C@@H]3O)[C@@H](O)[C@H]2O)c1
The data set is described as follows: Dynamical parameters to coenzyme, variant S156W. The conditions noted are these: other: NADP 0.01 to 3 mM, ribitol, pH 9.0. The format is biochemical, Zymomonas mobilis.
Excerpt: as §1

Substrate in data set [6]: NC(=O)c1ccc[n+]([C@@H]2O[C@H](COP(=O)(O)OP(=O)(O)OC[C@H]3O[C@@H](n4cnc5c(N)ncnc54)[C@H](OP(=O)(O)O)[C@@H]3O)[C@@H](O)[C@H]2O)c1
The experiment in a line: Dynamical parameters to coenzyme, variant S156T. It counts as biochemical, Zymomonas mobilis. The settings on record: other: NADP 0.01 to 3 mM, ribitol, pH 9.0.
Excerpt: as §1

Substrate in data set [7]: NC(=O)c1ccc[n+]([C@@H]2O[C@H](COP(=O)(O)OP(=O)(O)OC[C@H]3O[C@@H](n4cnc5c(N)ncnc54)[C@H](OP(=O)(O)O)[C@@H]3O)[C@@H](O)[C@H]2O)c1
The data set is described as follows: Dynamical parameters to coenzyme, variant S156Y. It counts as biochemical, Zymomonas mobilis. The conditions noted are these: other: NADP 0.01 to 3 mM, ribitol, pH 9.0.
Excerpt: as §1

Substrate in data set [8]: NC(=O)c1ccc[n+]([C@@H]2O[C@H](COP(=O)(O)OP(=O)(O)OC[C@H]3O[C@@H](n4cnc5c(N)ncnc54)[C@H](OP(=O)(O)O)[C@@H]3O)[C@@H](O)[C@H]2O)c1
The data set is described as follows: Dynamical parameters to coenzyme, variant S156E. The format is biochemical, Zymomonas mobilis. The settings on record: other: NADP 0.01 to 3 mM, ribitol, pH 9.0.
Excerpt: as §1

Substrate in data set [9]: NC(=O)c1ccc[n+]([C@@H]2O[C@H](COP(=O)(O)OP(=O)(O)OC[C@H]3O[C@@H](n4cnc5c(N)ncnc54)[C@H](OP(=O)(O)O)[C@@H]3O)[C@@H](O)[C@H]2O)c1
The data set is described as follows: Dynamical parameters to coenzyme, variant S156G. The format is biochemical, Zymomonas mobilis. The settings on record: other: NADP 0.01 to 3 mM, ribitol, pH 9.0.
Excerpt: as §1

Data set [10] is described as follows: Production of L-ribulose from ribitol with cell bodies of recombinant strains expressing the variants. The format is cell-based, E. coli. The conditions noted are these: whole cells, 25° C., 6 hours. As for the experimental part:
The following experiments were performed in order to produce L-ribulose using a ribitol dehydrogenase variant having double coenzyme specificity. The variants prepared by using the method of Example 5-3 were expressed using the method of Example 2; the cell bodies were only collected by centrifuging (8000×g for 10 minutes) the recombinant strain culture solution; and then the cell bodies were washed with distilled water twice. The final Cell OD was measured and the same amount of cells was used for a production experiment. The ribitol and each of recombinant enzyme variants were subjected to an enzyme reaction in 20 mM of Tris-HCl buffer (pH 9.5) at a temperature of 25° C. for 6 hours.

Substrate in data set [11]: NC(=O)c1ccc[n+]([C@@H]2O[C@H](COP(=O)(O)OP(=O)(O)OC[C@H]3O[C@@H](n4cnc5c(N)ncnc54)[C@H](OP(=O)(O)O)[C@@H]3O)[C@@H](O)[C@H]2O)c1
The data set is described as follows: Dynamical parameters to coenzyme, variant S156D. The conditions noted are these: other: NADP 0.01 to 3 mM, ribitol, pH 9.0. It counts as biochemical, Zymomonas mobilis.
Excerpt: In addition, the present invention provides a ribitol dehydrogenase mutant selected from the group consisting of a) a mutant, in which serine, an amino acid at position 156 of the ribitol dehydrogenase having an amino acid sequence as set forth in SEQ ID NO: 4 is substituted with aspartic acid; and b) a mutant, in which tyrosine, an amino acid at position 51 of the ribitol dehydrogenase having an amino acid sequence as set forth in SEQ ID NO: 4 is substituted with aspartic acid and serine, an amino acid at position 156 is substituted with alanine.
The mutants have preferably amino acid sequences as set forth in SEQ ID NOS: 5 and 6, respectively, but the present invention is not limited thereto.
as §1

Where [12] appears, read: metal ion 10 mM, enzyme treated with 10 mM EDTA for 24 hours and dialyzed.

Changes are numbered by the printed parent chain. In names and notes the source's numbering stands. Entries after “also recorded” stand apart in the source; their conditions may differ. Where two headings read alike, the source gives them in different places.

For `[Cl-].[Cl-].[Co+2]` [CoCl2], in [1], the “Relative activity (%) 10 mM” value worked out at 62.5% and the “activity of enzyme in the presence of metal ion (in words)” value was “maximum enzyme activity; also recorded: the activity of enzyme was observed”.
`[Cl][Mn][Cl]` [MnCl2]: in data set [1] (setting [12]), the “Relative activity (%) 10 mM” value was determined as 100%. Further, in [1] (metal ion 10 mM, listed as Mn^2+), the “activity of enzyme in the presence of metal ion (in words)” value is given as “maximum enzyme activity; also recorded: the activity of enzyme was observed”.
Turning to `[Cl][Fe]([Cl])[Cl]` [FeCl3], the “Relative activity (%) 10 mM” value in data set [1] (setting [12]) amounted to 0.2%.
Still for that read-out and setting: the value for `[Ca+2].[Cl-].[Cl-]` [CaCl2] was 1.1%; that for `[Cl-].[Cl-].[Mg+2]` [MgCl2] was 0.4%.
On the same count and under the same terms, under `[Cl-].[Cl-].[Zn+2]` [ZnCl2] stands 0.3%.
On to `NC(=O)c1ccc[n+]([C@@H]2O[C@H](COP(=O)(O)OP(=O)(O)OC[C@H]3O[C@@H](n4cnc5c(N)ncnc54)[C@H](OP(=O)(O)O)[C@@H]3O)[C@@H](O)[C@H]2O)c1` [NADP^+], for which the “kcat (NADP^+)” value in data set [2] was found to be 2.79 ± 0.15 s⁻¹.
`O=S(=O)([O-])[O-].[Cu+2]` [CuSO4]: in [1] (setting [12]), the “Relative activity (%) 10 mM” value turned out to be 0.1%.

B1: Zymomonas mobilis ribitol dehydrogenase (SEQ ID NO: 4) variant S156C (Zymomonas mobilis subsp. mobilis ZM4 = ATCC 31821; S229C) (protein)
chain: T1 sequence (Q5NQS1 74-338) with S156C
Usually Km stands for the substrate concentration at which the rate is half of its maximum. Usually kcat stands for the number of substrate molecules converted per active site and unit of time at saturation. As usually defined, the kcat/Km is the second-order rate constant that governs catalysis at low substrate concentration. Take B1: in [3], the Km came out at 170 ± 20 µM, the turnover number (kcat) came to 2.05 ± 0.10 s⁻¹ and the catalytic efficiency (kcat/Km) was found to be 12100 M⁻¹ s⁻¹.

B2: Zymomonas mobilis ribitol dehydrogenase (SEQ ID NO: 4) variant S156A (Zymomonas mobilis subsp. mobilis ZM4 = ATCC 31821; S229A) (protein)
chain: T1 sequence (Q5NQS1 74-338) with S156A
With B2, in [4], the Km came out at 390 ± 130 µM, the kcat came to 1.19 ± 0.07 s⁻¹ and the kcat/Km was 3050 M⁻¹ s⁻¹.

B3: Zymomonas mobilis ribitol dehydrogenase (SEQ ID NO: 4) variant S156W (Zymomonas mobilis subsp. mobilis ZM4 = ATCC 31821; S229W) (protein)
chain: T1 sequence (Q5NQS1 74-338) with S156W
For the molecule B3, in data set [5], the Km turned out to be 210 ± 30 µM, the turnover number (kcat) is 2.05 ± 0.11 s⁻¹ and the kcat/Km came to 9760 M⁻¹ s⁻¹.

B4: Zymomonas mobilis ribitol dehydrogenase (SEQ ID NO: 4) variant S156T (Zymomonas mobilis subsp. mobilis ZM4 = ATCC 31821; S229T) (protein)
chain: T1 sequence (Q5NQS1 74-338) with S156T
As for B4, in data set [6], the Michaelis-Menten constant (Km) worked out at 220 ± 30 µM, the catalytic constant (kcat) was 1.64 ± 0.22 s⁻¹ and the kcat/Km came to 7450 M⁻¹ s⁻¹.

B5: Zymomonas mobilis ribitol dehydrogenase (SEQ ID NO: 4) variant S156Y (Zymomonas mobilis subsp. mobilis ZM4 = ATCC 31821; S229Y) (protein)
chain: T1 sequence (Q5NQS1 74-338) with S156Y
Regarding B5, in data set [7], the Km was 230 ± 130 µM, the kcat came out at 1.42 ± 0.16 s⁻¹ and the kcat/Km is 6170 M⁻¹ s⁻¹.

B6: Zymomonas mobilis ribitol dehydrogenase (SEQ ID NO: 4) variant S156E (Zymomonas mobilis subsp. mobilis ZM4 = ATCC 31821; S229E) (protein)
chain: T1 sequence (Q5NQS1 74-338) with S156E
As for B6, in [8], the Michaelis constant (Km) worked out at 350 ± 40 µM, the kcat was 2.39 ± 0.15 s⁻¹ and the kcat/Km came out at 6830 M⁻¹ s⁻¹.

B7: Zymomonas mobilis ribitol dehydrogenase (SEQ ID NO: 4) variant S156G (Zymomonas mobilis subsp. mobilis ZM4 = ATCC 31821; S229G) (protein)
chain: T1 sequence (Q5NQS1 74-338) with S156G
As for B7, in data set [9], the Michaelis-Menten constant (Km) was determined as 340 ± 70 µM, the catalytic constant (kcat) is 0.72 ± 0.08 s⁻¹ and the kcat/Km worked out at 2120 M⁻¹ s⁻¹.

B8: S156D: mutant in which serine at position 156 of SEQ ID NO: 4 is substituted with aspartic acid (SEQ ID NO: 5) (protein)
chain: T1 sequence (Q5NQS1 74-338) with S156D, N248D
modifications: mutant
On to B8, for which, in [10] (20 mM Tris-HCl buffer pH 9.5, HPLC), the “L-ribulose produced, concentration” value is 1.21 g/L. In addition, the “conversion rate of L-ribulose in the whole cell level compared with wild-type (in words)” value in [10] (pH 9.5) is “higher”.

B9: Zymomonas mobilis ribitol dehydrogenase (SEQ ID NO: 4) variant S156D, SEQ ID NO: 5 (Zymomonas mobilis subsp. mobilis ZM4 = ATCC 31821; N321D/S229D) (protein)
chain: T1 sequence (Q5NQS1 74-338) with S156D, N248D
Turning to B9, in data set [11], the Michaelis constant (Km) was 300 ± 30 µM, the kcat was 2.46 ± 0.21 s⁻¹ and the kcat/Km was 8200 M⁻¹ s⁻¹.

These data come from patent publication US9005937B2, “Dual cofactor specific ribitol dehydrogenase and use thereof” (Konkuk University Industrial Cooperation Corp., priority 2011, dated 2015).
